Measured values reported in US20260115250A1 (CHARACTER BIOSCIENCES, published 2026).
Changes are numbered by the printed parent chain.

B1: T-069 (peptide)
peptide: VRGRLVQYRGEVQAMLGQSTEELRVRLASHLRKLRKRLLRDADDLQKRLAVYQA
B2: T-116 (peptide)
peptide: DAWERFRALFKELADYFRLGQSTEELRVRLASHLRKLRKRLLRDADDLQKRLAVYQA
B3: T-115 (peptide)
peptide: DHINKVQRKVTHEIERLFLGQSTEELRVRLASHLRKLRKRLLRDADDLQKRLAVYQA
B4: T-113 (peptide)
peptide: WKDFGERVERALREQFEDLGQSTEELRVRLASHLRKLRKRLLRDADDLQKRLAVYQA
B5: T-112 (peptide)
peptide: B4 peptide with W1Y, R13G, E14R, F16L, D18M
B6: T-114 (peptide)
peptide: B4 peptide with W1L, E9A
B7: T-068 (peptide)
peptide: MEDVRGRLVQYRGEVQAMLGQSTEELRVRLASHLRKLRKRLLRDADDLQKRLAVYQA
B8: T-117 (peptide)
peptide: RSGADALESALKELKRFIREWTLGQSTEELRVRLASHLRKLRKRLLRDADDLQKRLAVYQA

Molecular target: ATP binding cassette subfamily A member 1 (ABCA1), endogenous in ARPE-19 cells (human, UniProt O95477 1-2261)
Assay: cell-based or functional assay

ATP binding cassette subfamily A member 1 (ABCA1), endogenous in ARPE-19 cells, sequence (O95477 whole entry): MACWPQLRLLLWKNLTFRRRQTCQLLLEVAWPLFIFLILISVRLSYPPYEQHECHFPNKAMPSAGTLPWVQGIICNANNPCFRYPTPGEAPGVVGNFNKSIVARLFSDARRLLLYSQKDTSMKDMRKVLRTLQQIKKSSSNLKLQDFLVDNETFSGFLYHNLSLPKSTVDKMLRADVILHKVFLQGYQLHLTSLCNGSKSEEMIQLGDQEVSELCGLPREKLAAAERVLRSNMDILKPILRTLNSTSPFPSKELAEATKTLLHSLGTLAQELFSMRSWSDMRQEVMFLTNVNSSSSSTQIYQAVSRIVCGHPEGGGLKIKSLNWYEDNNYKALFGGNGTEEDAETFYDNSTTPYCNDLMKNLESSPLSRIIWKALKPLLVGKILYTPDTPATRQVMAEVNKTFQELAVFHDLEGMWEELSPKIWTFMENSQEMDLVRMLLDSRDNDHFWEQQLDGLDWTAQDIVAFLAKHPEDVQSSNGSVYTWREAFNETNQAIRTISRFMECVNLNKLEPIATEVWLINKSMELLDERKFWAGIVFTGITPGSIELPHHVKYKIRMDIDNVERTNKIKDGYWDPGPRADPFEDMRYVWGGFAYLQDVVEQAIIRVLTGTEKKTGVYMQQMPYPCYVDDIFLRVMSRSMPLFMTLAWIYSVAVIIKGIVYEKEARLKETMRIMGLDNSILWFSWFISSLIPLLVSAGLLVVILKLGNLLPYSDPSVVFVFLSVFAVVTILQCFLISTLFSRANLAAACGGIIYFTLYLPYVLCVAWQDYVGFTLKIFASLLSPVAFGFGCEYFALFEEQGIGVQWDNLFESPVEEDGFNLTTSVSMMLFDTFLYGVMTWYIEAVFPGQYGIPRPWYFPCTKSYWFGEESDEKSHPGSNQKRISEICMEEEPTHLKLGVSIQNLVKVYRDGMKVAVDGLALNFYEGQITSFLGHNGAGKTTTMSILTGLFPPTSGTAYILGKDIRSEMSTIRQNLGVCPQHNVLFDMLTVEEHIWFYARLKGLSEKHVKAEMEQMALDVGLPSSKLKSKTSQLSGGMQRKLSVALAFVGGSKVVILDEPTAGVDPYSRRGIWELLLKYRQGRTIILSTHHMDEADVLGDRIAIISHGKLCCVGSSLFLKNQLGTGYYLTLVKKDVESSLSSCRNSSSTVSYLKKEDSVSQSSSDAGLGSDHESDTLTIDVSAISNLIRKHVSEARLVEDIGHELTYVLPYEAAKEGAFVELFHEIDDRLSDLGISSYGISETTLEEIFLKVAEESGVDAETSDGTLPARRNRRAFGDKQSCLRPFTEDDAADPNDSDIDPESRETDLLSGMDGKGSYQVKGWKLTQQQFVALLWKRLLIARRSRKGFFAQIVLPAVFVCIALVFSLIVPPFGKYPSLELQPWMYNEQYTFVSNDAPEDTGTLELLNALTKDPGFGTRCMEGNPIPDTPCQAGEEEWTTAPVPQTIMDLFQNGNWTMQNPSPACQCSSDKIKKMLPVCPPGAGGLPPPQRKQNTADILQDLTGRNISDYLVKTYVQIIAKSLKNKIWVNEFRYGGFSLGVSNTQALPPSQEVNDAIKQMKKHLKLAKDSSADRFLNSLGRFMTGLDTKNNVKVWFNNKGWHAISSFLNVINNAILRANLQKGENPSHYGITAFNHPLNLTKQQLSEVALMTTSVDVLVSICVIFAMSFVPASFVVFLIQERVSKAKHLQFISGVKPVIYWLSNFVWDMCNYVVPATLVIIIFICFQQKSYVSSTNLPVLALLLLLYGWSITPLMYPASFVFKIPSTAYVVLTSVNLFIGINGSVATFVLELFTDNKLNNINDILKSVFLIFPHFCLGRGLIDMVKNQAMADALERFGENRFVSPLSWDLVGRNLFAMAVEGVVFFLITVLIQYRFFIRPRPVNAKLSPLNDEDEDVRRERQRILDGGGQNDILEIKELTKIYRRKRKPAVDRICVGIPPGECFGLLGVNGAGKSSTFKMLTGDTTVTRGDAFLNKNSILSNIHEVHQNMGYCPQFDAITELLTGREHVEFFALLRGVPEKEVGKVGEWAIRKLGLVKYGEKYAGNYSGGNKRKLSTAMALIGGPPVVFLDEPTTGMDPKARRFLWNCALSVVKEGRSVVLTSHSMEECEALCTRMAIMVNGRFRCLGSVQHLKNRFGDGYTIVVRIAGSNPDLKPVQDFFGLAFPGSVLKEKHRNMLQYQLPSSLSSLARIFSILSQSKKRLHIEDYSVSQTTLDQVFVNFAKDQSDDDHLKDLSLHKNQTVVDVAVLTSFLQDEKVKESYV

Row | Binder | EC50, membrane ABCA1 stability in ARPE-19 cells treated with mCRP (western blot) [µM]
1 | RSGADALESALKELKRFIREWT [T-101] | 3.5
2 | DAWERFRALFKELADYFR [T-087] | 4.6

Molecular target: ABCA1, endogenous in J774 murine macrophage cells (murine, UniProt P41233 1-2261)
Assay: cell-based or functional assay

ABCA1, endogenous in J774 murine macrophage cells, sequence (P41233 whole entry): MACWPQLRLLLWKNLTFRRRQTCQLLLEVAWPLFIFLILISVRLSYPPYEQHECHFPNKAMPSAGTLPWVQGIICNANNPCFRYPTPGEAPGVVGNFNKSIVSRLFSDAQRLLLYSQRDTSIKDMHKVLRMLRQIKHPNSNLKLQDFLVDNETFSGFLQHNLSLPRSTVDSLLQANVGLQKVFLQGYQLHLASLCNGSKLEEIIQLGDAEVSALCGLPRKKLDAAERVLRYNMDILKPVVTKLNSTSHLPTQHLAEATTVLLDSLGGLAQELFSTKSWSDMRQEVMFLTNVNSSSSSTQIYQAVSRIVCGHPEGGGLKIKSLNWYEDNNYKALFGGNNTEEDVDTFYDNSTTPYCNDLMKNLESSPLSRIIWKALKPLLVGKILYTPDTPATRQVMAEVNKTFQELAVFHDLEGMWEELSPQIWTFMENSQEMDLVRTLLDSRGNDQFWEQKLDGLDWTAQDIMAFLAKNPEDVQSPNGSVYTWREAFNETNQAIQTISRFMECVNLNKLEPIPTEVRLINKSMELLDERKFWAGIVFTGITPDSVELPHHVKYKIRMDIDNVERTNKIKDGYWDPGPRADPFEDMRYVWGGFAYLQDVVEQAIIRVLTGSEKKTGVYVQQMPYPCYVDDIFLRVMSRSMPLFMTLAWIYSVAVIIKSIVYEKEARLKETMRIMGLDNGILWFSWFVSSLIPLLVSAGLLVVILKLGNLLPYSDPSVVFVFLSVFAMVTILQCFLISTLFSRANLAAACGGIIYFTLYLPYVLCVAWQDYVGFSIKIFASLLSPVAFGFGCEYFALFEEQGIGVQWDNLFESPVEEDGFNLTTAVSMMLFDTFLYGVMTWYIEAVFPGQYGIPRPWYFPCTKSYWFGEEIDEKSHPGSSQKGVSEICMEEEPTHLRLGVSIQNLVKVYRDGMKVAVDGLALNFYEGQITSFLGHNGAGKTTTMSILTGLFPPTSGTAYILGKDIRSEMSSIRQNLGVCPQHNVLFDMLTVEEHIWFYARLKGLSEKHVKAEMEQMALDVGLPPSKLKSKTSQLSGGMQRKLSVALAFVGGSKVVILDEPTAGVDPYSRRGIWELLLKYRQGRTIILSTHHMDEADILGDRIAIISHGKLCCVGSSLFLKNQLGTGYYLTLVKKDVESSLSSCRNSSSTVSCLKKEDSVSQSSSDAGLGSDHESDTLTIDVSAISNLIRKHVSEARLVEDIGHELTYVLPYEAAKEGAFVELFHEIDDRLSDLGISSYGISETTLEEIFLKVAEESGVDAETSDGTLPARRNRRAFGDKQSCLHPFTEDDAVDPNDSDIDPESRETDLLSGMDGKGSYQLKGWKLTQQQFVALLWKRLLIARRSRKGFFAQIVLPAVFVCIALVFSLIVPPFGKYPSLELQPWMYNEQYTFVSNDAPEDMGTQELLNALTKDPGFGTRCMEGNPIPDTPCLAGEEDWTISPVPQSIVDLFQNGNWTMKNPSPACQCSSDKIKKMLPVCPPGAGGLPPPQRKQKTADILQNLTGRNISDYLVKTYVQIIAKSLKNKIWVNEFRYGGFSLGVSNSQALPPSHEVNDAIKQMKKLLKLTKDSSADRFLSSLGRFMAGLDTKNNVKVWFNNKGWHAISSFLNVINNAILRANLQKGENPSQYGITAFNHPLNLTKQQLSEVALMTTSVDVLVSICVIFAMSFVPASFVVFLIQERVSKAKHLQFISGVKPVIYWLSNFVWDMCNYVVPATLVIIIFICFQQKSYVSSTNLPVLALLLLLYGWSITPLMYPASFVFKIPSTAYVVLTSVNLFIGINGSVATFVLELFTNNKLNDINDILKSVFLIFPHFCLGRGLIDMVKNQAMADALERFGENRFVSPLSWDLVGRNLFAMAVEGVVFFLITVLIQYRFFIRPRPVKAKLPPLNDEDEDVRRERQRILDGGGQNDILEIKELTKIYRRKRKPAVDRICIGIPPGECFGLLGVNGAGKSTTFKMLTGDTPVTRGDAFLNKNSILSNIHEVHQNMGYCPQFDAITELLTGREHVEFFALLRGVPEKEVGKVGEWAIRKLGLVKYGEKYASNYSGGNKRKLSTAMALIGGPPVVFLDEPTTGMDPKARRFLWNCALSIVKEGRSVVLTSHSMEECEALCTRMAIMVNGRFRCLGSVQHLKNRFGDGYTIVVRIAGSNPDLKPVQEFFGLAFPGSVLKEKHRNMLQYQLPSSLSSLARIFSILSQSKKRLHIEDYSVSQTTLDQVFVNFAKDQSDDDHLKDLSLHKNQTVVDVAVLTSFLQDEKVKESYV

Row | Binder | EC50, membrane ABCA1 stability in J774 cells (western blot of membrane ABCA1 after 8-Br-cAMP washout) [µM]
3 | RSGADALESALKELKRFIREWT [T-101] | 3.7
4 | DAWERFRALFKELADYFR [T-087] | 1.51

Molecular target: T1, Low Density Lipoprotein Receptor (LDLR), recombinant (UniProt P01130 22-788, limits assumed)
T1 construct: also called Recombinant LDLR
Assay: SPR multi-cycle kinetics, immobilized LDLR, high surfactant preparation (HBS-P+), 1:1 model
Procedure: The table shown in FIG. 23 illustrates LDLR binding data (SPR), using a high surfactant preparation. Recombinant LDLR was diluted in 10 mM acetate buffer pH 4.5 and amine coupled to a CM5 chip at 1000 RU. Peptides were diluted to 5 μM in running buffer (HBS-P+, 1 mM CaCl2) and serially diluted 1:3 for 5 total concentrations. […] Between cycles, the chip surface was regenerated with 3 injections of 50 mM NaOH/100 mM EDTA. Multi-Cycle Kinetics was performed on a Biacore Insight Evaluation Software and binding kinetics were analyzed with a 1:1 binding model.

Row | Binder | Kd [µM]
5 | LASHLRKLRKRLLRDADDLQKRLAVYQAGAREGAER [T-046] | < 10
6 | LARHLRKLRKRLARDADDLQKRLAVYQAGAREGAER [T-047] | < 10
7 | LASHLRKLRKRLLRDGDKLQDRLAEYQARAKEAFDR [T-048] | < 10
8 | LARHLRKLRKRLARDGDKLQDRLAEYQARAKEAFDR [T-049] | < 10
9 | B1 | < 10
10 | B2 | < 10
11 | HLRKLRKRLLRDGDKLQDRLAEYQARAKEAFDR [T-040] | < 10
12 | HLRKLVKRLFRDGDKLQDRLAEYQARAKEAFDR [T-059] | < 10
13 | HLRKLRKRLLRDGDKLQKRLAEYQARAKEAFDR [T-052] | < 10
14 | HLRKLRKRLLRDGDKLYDRLAEYYARAKEAFDR [T-062] | < 10
15 | HLRKLRKRLLRDADDLQKRLAEYQARAKEAFDR [T-064] | < 10
16 | HLRRLRRRLLRDGDKLQDRLAEYQARAKEAFDR [T-041] | < 10
17 | HLRKLRKRLLRDGDKLQDRLAEYQARAREAFDR [T-055] | < 10
18 | LASHLRKLRKRLLRSLVSQYFQTVTDYGKDLM [T-065] | < 10
19 | LARHLRKLRKRLARSLVSQYFQTVTDYGKDLM [T-066] | < 10
20 | B3 | < 10
21 | HLRKLRKRLLRSLVSQYRQTVTDYGKDL [T-110] | < 10
22 | HLRKLVKRLLRSLVSQYRQTVTDYGEDL [T-111] | < 10
23 | HLRKLRKRLLRSLVSQYFQTVTDYGKDL [T-109] | < 10
24 | B4 | < 10
25 | B5 | < 10
26 | B6 | < 10
27 | B7 | < 10

Molecular target: T1, Low Density Lipoprotein Receptor …
Assay: SPR multi-cycle kinetics, immobilized LDLR, low-surfactant preparation (HBS-P), peptide:DMPC complex against peptide alone
Procedure: Recombinant LDLR was diluted in 10 mM acetate buffer pH 4.5 and amine coupled to a CM5 chip at 1000 RU. Peptides were diluted to 5 μM in running buffer (HBS-P, 1 mM CaCl2) and serially diluted 1:3 for 5 total concentrations. In a separate preparation, peptides were diluted to 1 μM in running buffer containing 25 μM DMPC and serially diluted 1:3 for 5 total concentrations in running buffer. Peptide: DMPC complexes were incubated for 1 hour prior to use. […] Between cycles, the chip surface was regenerated with 3 injections of 50 mM NaOH/100 mM EDTA. Multi-Cycle Kinetics was performed on a Biacore Insight Evaluation Software and binding kinetics were analyzed with a 1:1 binding model.

Row | Binder | change in LDLR binding in the presence of DMPC lipid [fold]
28 | LVQYRGEVQAMLGQSTEELRVRLASHLRKLRKRLLRDADDLQKRLAVYQA [T-070] | > 2
29 | B2 | > 2
30 | LASHLRKLRKRLLRSLVSQYFQTVTDYGKDLM [T-065] | > 2
31 | LARHLRKLRKRLARSLVSQYFQTVTDYGKDLM [T-066] | > 2
32 | B3 | > 2
33 | HLRKLRKRLLRSLVSQYRQTVTDYGKDL [T-110] | > 2
34 | HLRKLVKRLLRSLVSQYRQTVTDYGEDL [T-111] | > 2
35 | HLRKLRKRLLRSLVSQYFQTVTDYGKDL [T-109] | > 2
36 | B4 | > 2
37 | B5 | > 2
38 | B6 | > 2
39 | B7 | > 2
40 | B8 | > 2
